The record followed here is the DeepSol protein solubility set.

The data set is described as follows: soluble on expression in E. coli; label from the status in PepcDB or PDB records.
“MGSDKIHHHHHHMKSVGQALENQGRVPRNTNDELIQMILADAQVAEFIKTHQLSQREINISMSKFNQFLIERQKFKNKDSQYIAKGYEPILVMNEGYADVSYLETRELIEAQKKQAISDRINLVNLPKSYRNIRMTDFDINNESRMKAMSQLLDFVETYPSYNHKGLYLYGDMGVGKSYLMAAMARELSERKGVSTTLLHFPSFAIDVKNAISSGTVKDEIDAVKSVPILILDDIGAEQATSWVRDEILQVILQHRMLEELPTFFTSNYSFNDLERKWANIKGSDETWQAKRVMERVRYLAIEFHLEGPNRR”: the “soluble on expression in E. coli” value is listed as “not soluble”.

Regarding “SLIFGKIDYINLLPLHIYLKKYPLPNGYKASMEYKKGVPSKLNKDLFYRRIDAAIISSIESARKKYKNLDLGICANKRVLSVLVEKNTSNAKDPSSATSNALAKVLKQDGKVIIGDKALKLYLKDPSKYIDLCAKWHEKTGLPFVFARFSCVQKKALYKQILKKFPKTKIKIPYYILQKYAKTRDLDVKDVRYYLDEVIYHKISTKEKTALKRFVKACKALNLA”, the “soluble on expression in E. coli” value is reported as “soluble”.

Consider “MGSDKIHHHHHHMHDFLQFWLNEFSRSENPQHVNSVLTRAAATLGYEYAAYGMRRPFPISNPQILMVSNYPDRWQERYIEARFANVDSAVKAALGSDRPVTWSASTNASKSAFWAEALSFGIAHGWSSASRGADGTIGVLSLSRRQDAIDTAEKFRNESIVHWLANVAHASMAPFLPAADEFDPDLTRRETDVLKWTADGKTAYEIALILSISESTVNFHVKNIVSKLGSTNKIQAVAKAALMGML”, for which the “soluble on expression in E. coli” value is listed as “not soluble”.

Turning to “SVRCYVEIVEKLPERRPDPATIEGCAQLKPNNYLLAWHTPFNEKGSGFGAATKAMCIGLRYWKPERLETLIEVSVECGRMTHNHPTGFLGSLCTALFVSFAAQGKPLVQWGRDMLRAVPLAEEYCRKTIRHTAEYQEHWFYFEAKWQFYLEERKISKDSENKAIFPDNYDAEEREKTYRKWSSEGRGGRRGHDAPMIAYDALLAAGNSWTELCHRAMFHGGESAATGTIAGCLFGLLYGLDLVPKGLYQDLEDKEKLEDLGAALYRLSTEEK”, the “soluble on expression in E. coli” value is reported as “soluble”.

Take “MDDLADCREVFAYFDSKGDERISVQQVGDVLRALGQNPTEAEIHKCVGSFDREARLSFEDFVPIFQSVSKNREKHTVEEFVEGLSHFDKEGNGMINVAELRHLLTTLGERLSDEDVDQLLSGHNDSHGNVNISDFVRAVMNS”: the “soluble on expression in E. coli” value is “soluble”.

On to “MLIVGINGSPKKEGNTKYLINTVLEEAKSQGVETMVLEVGELLNSVKNPFCVVCSNPCSSICYKGTKLEEAYEILKKADAIVMGSPVYFGSVSAQLKAFFDKTRKLRSEKALYNKFACGVTVGGARFGGQETTMKALHDIMLVHGMTIVGDGYVGDDCGHHGVCAQQPADKDEFAIKRAKILGRRLVDVCKKAGALEHHHHHH”, for which the “soluble on expression in E. coli” value is reported as “soluble”.

With “MKKSLVVCALSAAVLLSGCETVNTTSGGVVGVDRKQSMFSMVSSAEVNQSYAQSYQQTLGEASSQGVLDKTSANAKRLQVIANRLIAQAPTFRPDCAQWKWEVNLIKSDELNANCGPGGKIIFYSGLIEKLKLTDDEIAAVMGHEIAHALREHGREAMSKQYAVGAGKQIATLFGVPQETVALGDNGVNLLMTLPNSRENENEADLIGLELAARAGYNPNAAISLWNKMGQAAGGSAPPEFMSTHPASTSRIASLQAAIPKVMPLYQAAKKSLEHHHHHH”, the “soluble on expression in E. coli” value is reported as “not soluble”.

Turning to “MNSKVGCLMAILLLAGCAKQTPPPQANNGWLKKTPQGNSLNVAKSSAGSTTVAYSDVIKQAASHYGVDETLIKAIIQVESGYNPDVVSRSNAVGLMQIKASTAGRDAYRMKGRNGQPSSRELKDPVKNIDIGAAYINILQNQQLAGINDPQTLRYATIVSYANGAGAMLRTFSSDKRLAVNKINSLSPNEFYQHIQKKHPAAQAPRYLWKVDTAYRAMSE”, the “soluble on expression in E. coli” value is on record as “not soluble”.

For the sequence “MSLEAKKDMGRCLWELKDEIDHVDRYCHDLAAWDDLHAFIKAPNADFLKINLNADTILDNEVSFICIVDRSGQLLFAEDWDLHRKEKTVLTTLPDSLRSVASLPFSSESDKDDLSNMKRVGIYNSSRGPMMLSSRPIITSNQQGPVQGAVIIGRLLDQGSLDAMMVRVALNFRFIDMSGDELTAKEKKILGELAVEEISIVERENSDNLEVYSHLADIGGRYLIQAEIPKHILQREGHHHHHH”, the “soluble on expression in E. coli” value is “soluble”.

As to “MSLDIEEARTTGIIDDKEAESRSESLEKAYLKTPLDPWKGEICTVSLSAAAHESRVVPISHKVGQVFEPSMDRDEARKLVLDLLDEYLFKNEKVLKIAVNLSFETKYAAKYGKYILGKVADPLIMWVRCLQIAAPQKINNPKKPTSGWGLKPATKHIFGVTMNDFSALLKKYKVNFFDEIDASKGEGLLYSAEDSDYAVQHYEYWSQIAAQISRYEEWLHKIEMPFTRVIGLMEYWGMNWDPNLATQKKQEAEIMQEQAAERIKQIAKETFNIDINTGKSGKTNEVKSLMFDYLKIPIAKYGKTGASLDQEALIDMAFMLENKLNDIDEEKYLGVSLPENWENIDPEKDPTLDKLERGAIRIAKREPHPYKEQALEVIDQLKKIQKYTTLLSSHIIGREKYLNFMSGRIHAGYSPFTETGRLNSFNPNGQNVPRPDNDEFKIRNFFVPKPGKILFFIDFSGFELRLMAWKSGDEVMTELFNTGGDMHRRTASVMTGKSEAEIVKKERTDAKAGNFGISYGGTEHALQFTFKTKYMIRKTLDECAQIVNAVKTAYKRIPEYQRKIVLEAREQGYVQTIYGYMRLLPGINSANRRDRGSAERQAANTPVQGSAADIMKKVQNEIYESIGKQEGVLSHGSADMIAQIHDEIIFEIDDDPEIVVAVEKQIKQVMEQPPVPGFPVPIEAEGSVGYRWGEKMSVESWLKQREGHHHHHH”, the “soluble on expression in E. coli” value is on record as “soluble”.

For the sequence “MEYIYASLLLHSAKKEISEDALKNVLTAAGISVDEVRLKAVVAALKEVNIDEVLKNAAAMPVAVAAQPQATQAQPAAEEKKEEKKEEEKKGPSEEEIASGLASLFGLEHHHHHH”, the “soluble on expression in E. coli” value is given as “not soluble”.

Take “MIIATAGHVDHGKTTLLQAITGVNADRLPEEKKRGMTIDLGYAYWPQPDGRVLGFIDVPGHEKFLSNMLAGVGGIDHALLVVACDDGVMAQTREHLQILQLTGNLQLTVALTKADRVDEARIGEVREEVLAALDNYGFADTVLFVTAANEGRGIAELRAHLQQLPARSHAAQHRFRLAIDRAFTVKGAGLVVTGTALSGEVNVGDTLWLTGVNTPMRVRSLHAQNQPTDHAYAGQRIALNIAGDAEKEQLNRGDWLLSDAPVGEAFSRVIVSLALHAPLSQWQPLHIHHAASHVTGRVSLLEGGLAELIFDTPLWLADNDRLVLRDISARATLAGARVVTLKAPRRGKRKPDYLHWLSTLAAAQDDSAALAIHLERGAVNLPDFGWARQLNPLGMRQLIEQHGFIQAGDNLLSAPVAARWQRKILDTLATYHEQHRDEPGPGRERLRRMALPMEDEALVLMLIERMRDDGLIHSHHGWLHLPDHKAGFSDEQQAVWQKVEPLFGDEPWWVRDLAKETGTEEQLMRLVLRQAAQQGIITAIVKDRYYRNDRIVAFANMIRELDQERGSTCAADFRDRLNVGRKLAIQILEYFDRIGFTRRRGNDHLLRDALLFPQKE”: the “soluble on expression in E. coli” value is listed as “not soluble”.

For the sequence “MAHHHHHHMALTTDYSKLGELIHQSPESPSLYNQAKYHTQKQNDSFYEIKRFMCLGSTIPDDAQYSVDLLIDRGDKKCRDVLAESFRVEGYKYATTNNDDNVRFAKLFFDHYANMFYCMHLHGDDRKCNSLFRHFYEAVGKQTR”, the “soluble on expression in E. coli” value is listed as “not soluble”.

As to “MHFYKYGVLIDQLRDSFEWRVAFLDGSVSDHCCITVPSEKFNFPPTPGATVKAKFEHANSFLPSLVAQCGSFEWFRDVTVVNSKVVIFAIVHFSNECLERDPFKINGMDYSIIENENTDFQKIVLPTRVLQTSITSRSNLQNTDTPFIYRIGVCWEPISFENGVTVNWRYYADFPITPIFELYYRETTLPYIAESMVYGVLEGVVIAENDHGALFWTPKMGCAILPSTSLDTPMPSLGSVHVILVKRCIPENSFGFSCSYELLSSFRSTEWPNLKVITDQITRKVYIEANASCRSMMENQDFPSMNVPHIGKVFRGLQQYRDKLSAGHLYDFRMEFQKEEGSFVPTIVDLCLEEDEMVDCRVVYISNETSTYFAVLDPSSNSFDRFKQSIDYIAIPFRVLFCANGVHVKNEELLLNSYKVRVRVPRNRHDVVNAIHVEHVIQSPKDPAYFITNGSVWLRTTVKFQNASRYELLCPLLEQKIIDVNGVTAAMSLTQEFTVHAQFVLMERNVPVFVVRQLASTVREHPRTTNYPSRSLNLSYEVSGALARTNPNGQLSAADNNIVLINDSISLDHNLPDTGEYPTILNESSFERQLLFDNQSIADSASTSGDFILTESVYESSSAASTCTVIDRNDARFSALNDDSNILISESWLDSTNQHSETTMDTPEIITESFYESTHDQASSRASTVDRLASDVDKISIGRPDYSPPPRRRIFGYSTPGDRVRPRNSYGSSSSGSLNGRPKRRAPYGFRQIRNITPHNVLLRDIIYNNINNRKMFVEQNKNAILKCWNRLPLAQVTRTKKIFCTVIAVESIKFPPSFDDTCIKGLVRFAVVYDDMNVKNTSVVVPIGGNFNNLPKSFQLGDAYKVFHFSSYKDLICRIGGFSHGLNGELSRVAPVNCISNPETVNGRYGQRYLRCTVNAARPAISEIESDVFELWTVHGLPGFIIVEKVPLLMNHLNKEPINPDVHHQHMYTCIIEPLAGGPVEASILKDVKEGEDICIFWRLVVEFSDTVPLPRLKEKTDKVVPQIRTEPVQSGTFSVDDYGCWETLRINSILAQEKLDRMRAVGDPRVKMIDGPDLRPEIEVRKVDVNTRREKMFAAFDALLEKLPQLHSEGILGYVLEDDLRVKIKKLTPMNDNNHKFTFTFRNGSLEIGVNYLTDMLTRGKIYKVMNEMKKHVPLLKVLSDCIGLNTTYIKKTDAVKMMLHYMYRNELHTYL”, the “soluble on expression in E. coli” value was “not soluble”.

Consider “MSLNEEQLSKRLEKVASYITKNERIADIGSDHAYLPCFAVKNQTASFAIAGEVVDGPFQSAQKQVRSSGLTEQIDVRKGNGLAVIEKKDAIDTIVIAGMGGTLIRTILEEGAAKLAGVTKLILQPNIAAWQLREWSEQNNWLITSEAILREDNKVYEIMVLAPSEKPVTWTKQEIFFGPCLLKEQSAIFKSKWRHEANTWQNIIQTISNNQPVSTENQAKIRELEHKIALVEDVLKEGHHHHHH”, for which the “soluble on expression in E. coli” value is recorded as “soluble”.

Take “AAGSINTLAQAEVRSRQISVSSPGSSTDINVKKIASIGDVCESMKQQLLVLVEWAKYIPAFCELPLDDQVALLRAHAGEHLLLGATKRSMMYKDILLLGNNYVIHRNSCEVEISRVANRVLDELVRPFQEIQIDDNEYACLKAIVFFDPDAKGLSDPVKIKNMRFQVQIGLEDYINDRQYDSRGRFGELLLLLPTLQSITWQMIEQIQFVKLFGMVKIDNLLQEMLLGG”: the “soluble on expression in E. coli” value is given as “soluble”.

Turning to “KLDKAYLNNDADKITYMPTWRPWEESEIINGNIKKTTYYKSILDVIKAFEKENMLNRLQIAAHNKFSQYMKNNFDKYQNIFIEDPTDTLTNSIIYITDISSIILDAAYRGAYPIFYWKEFDYIIEKHGGTSPVNPENAPGDVVYSEQDLVNIVKYIIRNDYKIPSRIKENYKKLNEFNDNQNTQRVVDILIEDNII”, the “soluble on expression in E. coli” value was “not soluble”.

With “MSLSAFFAHLHLHSEFSLQDGLIRVKPLMQAVAQAGMPAVALTDQGNLFGAVKFYRAAVNAGVKPIIGAEIRVADADASERPARLVLLCADTQGYRTLTRLLTRGYLEGQQQGVPVVDREWLRGRCAGLIGLSGGRVGDVGRALLSGEPALAARKLEFWREQFGDRYYLELQRTGRPGDEEHVQAAVELATAHGVAVVATNDVCFLRPEDEGHHHHHH”, the “soluble on expression in E. coli” value is recorded as “not soluble”.

With “MTVTNMTEWFAKGVEALHHDHVYLARACFEQAVTEQRSPLSSSYLALCQAKTRGTFSDAIASAREAVAADPANPALYHNLGCIYLLAGKRTEAIETFRQGLEHHHHHH”, the “soluble on expression in E. coli” value was “not soluble”.
